Measurements: patent US8487082B2, “Synthetic scFv analogue to the 6313/G2 (anti angiotensin II type 1 receptor) monoclonal antibody variable regions” (Queen Mary & Westfield College, priority 2008, dated 2013)
Positions count from the first letter of the chain named. “Also recorded” adds a separate entry of the source.

B1: HuCY: humanised (resurfaced) variant of scFv R6313/G2, SEQ ID NO:27 (protein)
scFv: QVQLVQSGPELVKPGASVKISCKASGYSFTGYNMNWVKQAPGKSLEWIGNIDPYYGGTTYNQKFKGKATLTVDKSSSTAYMQLKSLRSEDTAVYYCAREVDYWGQGTTVTVSSGGGGSGGGGSGGGGSDIVLTQSPASLAVSLGERATISCRASKSVSTSGYSYMHWYQQKPGQPPRLLIYLVSNLESGVPDRFSGSGSGTDFTLTISSVEAEDVAVYYCQHIRELTRSEGTKLEIKR
modifications: HuCY
B2: var3: humanised variant of scFv R6313/G2, framework changes only, SEQ ID NO:28 (protein)
scFv: B1 scFv with S44G
modifications: var3
B3: var4: humanised variant of scFv R6313/G2 with two further changes in VLCDR2 (LVSDLED), SEQ ID NO:29 (protein)
scFv: B1 scFv with S44G, N185D, S188D
modifications: var4

Key:
T47D cells [1] = experiment: Apoptosis - caspase-3/7 activity; assay type: cell-based; conditions: 100 nmol/L angiotensin II, 12 hours
Excerpt: Cells were harvested using Trypsin/EDTA and counted.

MCF-7 cells = experiment: Cell viability assay (XTT); assay type: cell-based; conditions: MCF-7, Losartan alone, all concentrations used
Experimental: (§1) MCF-7, T47D and MDA-MB-231 breast cancer cells were obtained from The American Tissue Culture Collection (LGC Promochem, Teddington, UK). Rat aortic smooth muscle cells (RASMC) were developed from primary culture (Barker et al., 1996). MCF-7 cells were maintained in Minimal Essential Medium (MEM), T47D and MDA-MB-231 cells in RPMI 1640 medium, and RASMC were maintained in Dulbecco's Modified Eagle's Medium (DMEM). All media were supplemented with 2 mM L-glutamine, 10% fetal bovine serum (FBS), 50 U/ml penicillin and 0.05 mg/ml streptomycin. Cells were maintained at 37° C. in a humidified atmosphere ([…], 5% CO2).
(§2) Confluent cell monolayers were removed from tissue culture flasks using trypsin/EDTA. Cells (15×10^3 per well) were seeded into 96 well tissue culture plates containing the appropriate medium for each cell line. […] Cell viability was assessed by the ability of metabolically active cells to reduce 2,3-bis[2-Methoxy-4-nitro-5-sulphophenyl]-2H-tetrazolium-5-carboxyanilide inner salt (XTT) to the coloured formazan product. Absorbance was measured using a Multiskan Ascent microplate reader (Thermo Labsystem, Helsinki, Finland) at a wavelength of 450 nm and a reference wavelength of 630 nm. Each measurement was performed in triplicate. IC50s were calculated using a non-linear regression formula using GraphPad Prism v4.0 software (GraphPad Software Inc, San Diego Calif., USA).

MDA-MB-231 cells = experiment: Cell viability assay (XTT); assay type: cell-based; conditions: MDA-MB-231, Losartan alone, all concentrations used
Experimental: as §1, §2

T47D cells [2] = experiment: Cell viability assay (XTT); assay type: cell-based; conditions: Homo sapiens, Losartan alone, 25 μmol/L
Experimental: as §1, §2

[3] = biological target: peptide antigen EDGIKRIQDDC-biotin (from AT1-receptor N-terminal region) (Rattus norvegicus, UniProt P25095); experiment: Antigen binding ELISA of scFv variants; conditions: for activity in ELISA compared with murine scFv (12D): FIG. 13, indirect comparison against purified IgM; for binding to peptide antigen by ELISA versus murine scFv (12D and 11B): absorbance 450 nm per mg protein/well, FIG. 12
Experimental: Enzyme-linked immunosorbant assays (ELISAs) were carried out in Maxisorp 96-well plates coated with Peptide antigen EDGIKRIQDDC-biotin (SEQ ID NO:14) (2-8 ug/ml in carbonate buffer pH 9.6) overnight at 4 or 37 C. The coated wells were blocked using 1% alkaline soluble casein (Blocking buffer) for 1 h at RT, then washed three times with PBS containing 0.1% v/v Tween 20. ScFv samples diluted between 1:1 to 1:100 in PBS-T were added and incubated for 1 h at RT before washing as before. A secondary HRP-conjugated anti-His-Tag antibody was then added (diluted 1:1000 in blocking buffer) for 1 h at RT. Wells were then washed three times in PBS-T then twice with PBS (without Tween 20). 100 μl of TMB substrate solution was added and colour was allowed to develop for 30 min, at which time 100 μl of 2M sulphuric acid was added to stop the reaction. Absorbance at 450 nm was read on a plate reading spectrophotometer. Protein concentrations were determined using an Eppendorf Biophotometer reading at 280 nm and using an extinction coefficient for the scFv of 1.7 as above.

[4] = biological target: biotinylated peptide antigen (AT1 receptor) (Rattus norvegicus, UniProt P25095); experiment: Quartz crystal microbalance binding (Attana 100); conditions: 9 μg/ml, 100 second injection period
Experimental: Data were obtained comparing the characteristics of binding of the scFv variants and IgM to immobilised peptide antigen using the Attana 100 Quartz Crystal Microbalance. This involved use of a streptavidin (0.1 mg/ml)-coated biotin “chip” (gold-plated quartz crystal in an Attana 100 Biosensor (Quartz crystal microbalance (QCM)) (Attana AB, Stockholm, Sweden). Peptide antigen corresponding to that sequence used to raise the original murine hybridoma, biotinylated at the C-terminus, was then run across the chip at a concentration of 4 μg/ml to create a binding target for scFvs and IgM that were subsequently run across the surface of the QCM chip. Attester software (Attana, Sweden) was used to monitor changes in resonance frequency of the QCM chip in response to binding of a test antibody to the antigen. The magnitude of deflection in Hz over the period of sample injection of 100 s in Hz/second was determined for each antibody at a concentration of 9 μg/ml. The rate at which the antibody was then released from the QCM chip was also measured in Hz/second from the straight-line portion of the biosensor trace as antibody gradually departed from the chip and as the resonance frequency of the chip decreased. Running buffer was PBS containing 0.005% Tween 20 (PBST) and this was also used to make antibody dilutions to give a final protein concentration of 9 μg/ml in each case. The Attana 100 was set up with a 50 μl injection loop and was running with a constant pump speed of 20 μl/min. Samples and PBST buffer controls were injected over 100 seconds giving a sample volume across the chip of 33 μl. 100 mM (6.6 μl volume) phosphoric acid solution was used to regenerate the strepavidin-antigen surface between individual experimental sample runs.

Molecule | activity in ELISA compared with murine scFv (12D) [3] | binding to peptide antigen by ELISA versus murine scFv (12D and 11B) [3] | change in resonance frequency (apparent on-rate, Hz/second) compared with IgM [4] | also measured
angiotensin II (DRVYIHPF; Angiotensin-2; UniProt P01019 25-32, looked up) [peptide hormone added at 100 nmol/L in the cell assays, reference compound] |  |  |  | caspase-3/7 activity compared with untreated control (T47D cells [1]): inhibited caspase-3/7 activity
CCCCc1nc(Cl)c(CO)n1Cc1ccc(-c2ccccc2-c2nn[nH]n2)cc1 [Losartan, reference compound] |  |  |  | effect on cell survival (MCF-7 cells): unaffected; effect on cell survival (MDA-MB-231 cells): unaffected; inhibition at 25 µM (T47D cells [2]): 43%
B1 | higher activity | more strongly; also recorded: increased binding |  | 
B2 |  | more strongly; also recorded: increased binding | significantly greater increases in resonance frequency; also recorded: significantly greater changes in resonance frequency | 
B3 | higher activity | more strongly; also recorded: increased binding; also recorded: most significantly increased binding | significantly greater increases in resonance frequency; also recorded: significantly greater changes in resonance frequency | increase in binding to the antigen compared with murine scFv ([3]; ELISA, same amount and purity of scFv): 5-10 fold
